We go through six substances from paper doi:10.1101/405654.

The target of this assay is GMPCPP-stabilised, rhodamine labelled microtubules (porcine brain tubulin) (porcine (purified from porcine brain)) (UniProt P02550). The assay can be described thus: single-molecule TIRF microscopy.
Sequence of UniProt P02550 (P02550 whole entry, the tested form may be a part): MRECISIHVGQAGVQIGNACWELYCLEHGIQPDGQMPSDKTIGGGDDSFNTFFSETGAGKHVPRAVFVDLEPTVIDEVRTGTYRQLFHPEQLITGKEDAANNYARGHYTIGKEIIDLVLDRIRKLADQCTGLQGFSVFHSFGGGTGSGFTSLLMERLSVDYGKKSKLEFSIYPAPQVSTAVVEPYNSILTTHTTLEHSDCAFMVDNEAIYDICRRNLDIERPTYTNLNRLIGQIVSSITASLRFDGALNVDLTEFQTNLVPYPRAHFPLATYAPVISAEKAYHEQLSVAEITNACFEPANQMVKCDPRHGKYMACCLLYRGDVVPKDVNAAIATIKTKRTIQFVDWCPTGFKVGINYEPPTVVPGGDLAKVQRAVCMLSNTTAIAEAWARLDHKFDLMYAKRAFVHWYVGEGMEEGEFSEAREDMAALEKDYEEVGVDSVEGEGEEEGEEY
Take “Rat kinesin-1 rKin430-GFP-h6 G262K (domain or fragment)”: the microtubule end residence time turned out to be 0.74 s.
Regarding “Rat kinesin-1 rKin430-GFP-h6 N263E (domain or fragment)”, the microtubule end residence time is 0.98 s.
The substance “Rat kinesin-1 rKin430-GFP-h6 S266A (domain or fragment)” yielded a microtubule end residence time of 0.8 s.
Next, “Rat kinesin-1 rKin430-GFP-h6 S266R (domain or fragment)”: 1.39 s; “Rat kinesin-1 rKin430-GFP-h6 triple mutant (G262K, N263E, S266R) (domain or fragment)”: 0.97 s; “Rat kinesin-1 rKin430-GFP-h6, wild type (domain or fragment)”: 0.35 s.
